Measured values: patent US20230149516A1, “USE OF PEPTIDYLGLYCINE ALPHA-AMIDATING MONOOXYGENASE (PAM) FOR THERAPEUTIC PURPOSE” (PAM THERAGNOSITICS GMBH, priority 2020, published 2023)

Key:
PAM activity = experiment: Circulating PAM activity in rats after intravenous injection of PAM, ascorbate or both, measured without exogenous ascorbate; format: in vivo, Wistar rats
endogenous human ADM-Gly = experiment: Conversion of endogenous ADM-Gly to bio-ADM in human Li-Heparin plasma with exogenous recombinant PAM; format: biochemical; details: 37° C.
Source text: ADM-Gly was quantified as based on Weber et al. (Weber et al. 2017. JALM 2(2): 222-233) for bioactive ADM with the following modifications: the tracer-antibody used for ADM-Gly detection, labelled with MACN-acridinium-NHS, was directed to the C-terminal glycine of ADM-Gly. The assay was calibrated with synthetic ADM-Gly. The limit of detection (LOD) was 10 pg/mL of ADM-Gly. Cross-reactivity of antibody directed to the C-terminal glycine of ADM with bio-ADM was in the range between 6 and 50% in a concentration dependent manner. All determined ADM-Gly concentrations were corrected for cross-reactivity as follows: For each ADM-Gly quantification additional quantification of bio-ADM in corresponding samples was performed using the Sphingotest® bio-ADM immunoassay. […] The determined signal (RLU) was used to calculate the false-positive ADM-Gly concentration (pg/mL) using the ADM-Gly calibration curve. This concentration was subtracted from the initially determined ADM-Gly concentration.
In a further experiment we investigated the formation of bio-ADM from endogenous ADM-Gly by native human plasma PAM and the effect of addition of exogenous recombinant human PAM. […] The concentration of bio-ADM in the reaction sample was quantified using the Sphingotest® bio-ADM immunoassay as described recently (Weber et al. 2017. JALM 2(2): 222-233). […]

circulating ADM-Gly = experiment: bio-ADM increase after administration of recombinant human PAM in rats (example 9); format: in vivo, Wistar-rat; details: intravenously administered recombinant human PAM
Description: Two animals (Wistar-rat, male, 2-3 month of age) received 17 μg of recombinant human PAM (see example 1) as a single dose in a total volume of 500 μl (in phosphate-buffered saline). One control-animal received 500 μl of PBS. Blood sampling (Li-Heparin Plasma) was carried out 30 min prior to application and 30 min, 2 h, 4 h, 8 h, 24 h and 48 h, respectively, after application.

[1] = Half-life of recombinant PAM in rats (example 10, one-phase decay model); format: in vivo; details: example 10, single i.v. dose, FIG. 22
Description: FIG. 22: Half-life of recombinant PAM in rats, determined from one-phase decay model.
Endotoxin-free, recombinant PAM (SinoBiological) was buffer exchanged into sterile phosphate buffer saline (PBS, Dulbecco) and adjusted to 50 μg/mL. Sterile ascorbate solution for injection (200 mg/mL, vitamin C 1000, WÖRWAG Pharma) was purchased in a local pharmacy and adjusted under sterile conditions with PBS to 40 mg/mL. For combined injections of PAM and ascorbate, the compounds were prepared separately in equal volumes (100 μg/mL or 80 mg/mL for PAM and ascorbate, respectively). Both compounds were combined directly prior to injection to result in concentrations of 50 μg/mL for PAM and 40 mg/mL for ascorbate. Sterile PBS was used as placebo. All samples were stored at −80° C. until use. Animals, male Wistar rats, 2-3 month of age, were assigned into 4 groups (placebo, ascorbate, PAM, PAM+ascorbate) with 3 animals per group. Each animal in the individual group received 500 μl of the respective compound intravenously as a single dose injection. Blood sampling was performed as Li-Heparin 30 min prior to and 15, 30, 45, 60, 120, 180, 240 and 300 min post injection. PAM activities were determined as described in example 3.

bio-ADM = experiment: Circulating bio-ADM concentration in rats after intravenous injection of PAM, ascorbate or both; format: in vivo, Wistar rats

B1: recombinant human PAM: Recombinant human peptidylglycine alpha-amidating monooxygenase, aa 21-834, SEQ ID No. 10 (Example 1); Example 10 used endotoxin-free recombinant PAM from SinoBiological (protein, listed as Homo sapiens)
chain: SPLSVFKRFKETTRPFSNECLGTTRPVVPIDSSDFALDIRMPGVTPKQSDTYFCMSMRIPVDEEAFVIDFKPRASMDTVHHMLLFGCNMPSSTGSYWFCDEGTCTDKANILYAWARNAPPTRLPKGVGFRVGGETGSKYFVLQVHYGDISAFRDNNKDCSGVSLHLTRLPQPLIAGMYLMMSVDTVIPAGEKVVNSDISCHYKNYPMHVFAYRVHTHHLGKVVSGYRVRNGQWTLIGRQSPQLPQAFYPVGHPVDVSFGDLLAARCVFTGEGRTEATHIGGTSSDEMCNLYIMYYMEAKHAVSFMTCTQNVAPDMFRTIPPEANIPIPVKSDMVMMHEHHKETEYKDKIPLLQQPKREEEEVLDQGDFYSLLSKLLGEREDVVHVHKYNPTEKAESESDLVAEIANVVQKKDLGRSDAREGAEHERGNAILVRDRIHKFHRLVSTLRPPESRVFSLQQPPPGEGTWEPEHTGDFHMEEALDWPGVYLLPGQVSGVALDPKNNLVIFHRGDHVWDGNSFDSKFVYQQIGLGPIEEDTILVIDPNNAAVLQSSGKNLFYLPHGLSIDKDGNYWVTDVALHQVFKLDPNNKEGPVLILGRSMQPGSDQNHFCQPTDVAVDPGTGAIYVSDGYCNSRIVQFSPSGKFITQWGEESSGSSPLPGQFTVPHSLALVPLLGQLCVADRENGRIQCFKTDTKEFVREIKHSSFGRNVFAISYIPGLLFAVNGKPHFGDQEPVQGFVMNFSNGEIIDIFKPVRKHFDMPHDIVASEDGTVYIGDAHTNTVWKFTLTEKLEHRSVKKAGIEVQEIKEAEAVVGS
maximal elevation of PAM activity compared to placebo group (factor) (PAM activity; 15 minutes past injection): 6 | PAM activity compared to placebo group (PAM activity; 120 min past injection): not significantly different | time of maximal elevation of PAM activity past injection (PAM activity; single i.v. injection): 15 min | elevation of circulating PAM activity (PAM activity; single i.v. injection of 500 μl (PAM 50 μg/mL, ascorbate 40 mg/mL), vs placebo): highly significant elevation | time PAM activity remained elevated after injection (PAM activity; single i.v. injection, significantly elevated for PAM and the combination): 60 min | increase of the bio-ADM synthesis rate from endogenous human ADM-Gly (averaged factor) (endogenous human ADM-Gly; 500 ng/ml exogenous recombinant PAM (approximate doubling of PAM concentration) in human Li-Heparin plasma pool with high ADM-Gly, at each time-point, vs native PAM alone): 1.8 | ADM-Gly consumption / shift of ADM-Gly/bio-ADM ratio (endogenous human ADM-Gly; 500 ng/ml exogenous recombinant PAM in human Li-Heparin plasma): faster shift of the ADM-Gly/bio-ADM ratio towards bio-ADM | time of maximum bio-ADM increase (circulating ADM-Gly): 4 h | half-life of recombinant human PAM in rats [1]: 52.7 min | bio-ADM concentration elevated by the factor (normalized to placebo) (bio-ADM; after 15 min): 1.8 | bio-ADM concentration elevated by the factor (normalized to placebo) (bio-ADM; after 30 min): 2.4 | bio-ADM concentration elevated by the factor (normalized to placebo) (bio-ADM; after 45 min): 2 | bio-ADM concentration elevated by the factor (normalized to placebo) (bio-ADM; after 60 min): not significantly different | bio-ADM concentration compared to the Placebo group (bio-ADM; after 120 minutes): not significantly different | time of maximum bio-ADM increase (bio-ADM; intravenously administered, example 10): 30 min
